Experiment: yeast display, Sf9 membrane polyspecificity reagent, FACS + sequencing; frameworks hold sequencing errors
How it was run: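 Nanobodies from a synthetic yeast display library (Saccharomyces cerevisiae BJ5465), induced 36–48 hours with galactose, were stained 1 hour at 4 °C with 10% biotinylated, detergent-solubilized Sf9 membrane reagent, enriched on streptavidin microbeads, then FACS-sorted. Anti-HA (expression) and streptavidin (reagent binding) fluorescence set low and high (top ~1%) gates. Polyreactivity labels come from the gate of origin. Genes were colony-PCR amplified, MiSeq 2 × 250 sequenced and filtered by CDR length.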

Sequence | polyreactivity (PSR sort gate)
QVQIVESGGGLVQAGGSLRLRCADSGRIFVRYAMGGYIQSPGKDRELVAGITSGSRTNYADSVKGRFTISRDNAKNTVYLQMNSLKPEDTAVYYCAKRYLRYSRLGNYWGQGTQVTVSS | high polyreactivity
QVQLVESGGGLVQAGGSLRLSCAASGSIFTYNAMGWYRQAPGKDRELVAAIRLSGGSTYYADSVKGRFTISRDNAKNTVYLQMTSLNPEDTAVYYCAAESAAASGVYSVEYDYWGQGTQVTVSS | low polyreactivity
QVQLVESGGGLVQAGGSLRLSCAASGRIFYANAMGWYRQAPGKERELVASISARGGSTYYADSVKGRFTISRDNAKNTVYLQMNSLKPEDTAVYYCAKRDTFKPYASLYDYWGQGTQVTVSS | high polyreactivity
QVQLEESGGGLVQVGGSLRLSCAASGLTFRYYAMGWYRQAPGKERELVAAISGSGSTTYYADSVKGRFTISRDNAKNTVYLQMNSLKPEDTAVYYCNARRTGRVGGVVTHYYWGQGTQVTVSS | high polyreactivity
QVQLVESGGGLVQAGGSLRFSCAASGITFVYYARGWYRQAPGKERELVAAITRSGDSTYYADSVKGRFTISRDNAKNTVYLQMNSLKPEDTAVYYCAAESYYSTYQVEYYDWGQGTQVTVSS | high polyreactivity
QVQLVQSGGGLVQAGGSLRLSCAASGFIFDTYTMGWYRQAPGKERQLVAAISRSGASTYYADSVKGRFTISRDNAKNTVYLQMNSLKPEDTAVYYCATVYYPSYRGGYDYWGQGTQVTVSS | high polyreactivity
QVQLVESGGGLVQAGGSLRLSCAASGRTFVGYAMGWYRQAPGKERELVAAMSASGTSTYYADSVKGRFTISRDNAKNTVYLQMNSLKPEDTAVYYCAKAKDLPPRYGSWGQGTQVTVSS | high polyreactivity
QVQLVESGGGLVQAGGSLRLSCAASGRTFHPYAMGWYRQAPGKERELVAAITSIGGSTFYADSVKGRFTISRDNAKNNVYLQLTSLKPEDTAVYFCNAESSYYYGTAAYEYWGQGTQVSVSS | low polyreactivity
QVQLVESGGGLVQAGGSLRLSCAASGITFYRYAMGWYRQARGKERELVADITSSGGSTYYADSVKGRFTISRDNAKNTVYLQMNSLKPEDTAVYYFNAAYYFSRIVYPYDYWGQGTQVTVSS | high polyreactivity
QVQLVESGGGLVQAGGSLRLSCAASGSIFSTYAMGWYRQAPGKERELVAAISVSGSSTYYADSVKGRFTISRDNAKNTVYLQMNSLKPEDTAVYYCAADVPYGASIISYDYWGQGTQVTVSS | low polyreactivity
QVQLVESGGGLVQAGGSLRLSCAASGSIFWNNAMGWYIQAPGKEREWVAGISSAGSTNYADSVKGRFTISRDNAKNTVYLQMNSLKPEDTAVYYCAASYFRDYVWLRSNVRYYYWGQGTQVTVSS | low polyreactivity
QVQLVESGGGLVQAGGILRLSCAASGSTFSPYAMGWYRQAPGKERELVANITISGGSTYYADSVKGRFTISRDNAKNTVYLQMNSLKAEDTAVYYCNADSLIRWLFTVVIFDYWGQGTQVTVSS | low polyreactivity
QVQLVESGGGLVQAGGSLRLTSAASGSIFQNYAMGWYRQAPGKERQLVAVIDDSGGITYYADSVKGRFTISRDNAKNTVYLEMNSLKPEDTAVYYCARNVNAKKVLGGFDSWGQGTQVTVSS | low polyreactivity
QVQLVESGGGLVQAGGSLRLSCAASVSISLYYAMGWYRQAPGKERELVAAISTRGGSTYYADSVKGRFTISRDNAKNTVYLQMNSLKPEDTAVYYCAARTRLTADPRYGISSKMYYWGQGTQVTVSS | high polyreactivity
QVQLVESGGGLVQAGRSLRLSCAASGRTYGIYAMGWYRQAPGKERQLVAAITWSGDSTYYADSVKGRFTISRDNAKNTVYLQMNSLKPEDTAVYYCAADYVGVTSVRYDYWGQGTQVTVSS | low polyreactivity
QVQLVESGGGLVQAGGSLRLSCAASGSIFGDYAMSWYRQAPGKERELVATITWIGGSTYYADSVKGRFTISRDNAKNTVYLQMNSLKPADTAVYYCAIYMGSYRLDYWGQGPQVTVSS | low polyreactivity
QVQLVESGGGLVQAGGRLRLSCAASGYTFVVNAMGWYRQAPGKERELVAAITGGDSTNYADSVKGRFTISRDNATNTVYLQMNSLKPEDTAVYYCAKRDVLPFQTVTGSRNDYWGQGTQVTVSS | low polyreactivity
QVELVESGGGLVQAGGSLRLSCAASGRIFFYNGMGWYRQAPGKERELVAAINRSGGSTYYADSVKGRFTISRDNAKNTVYLQMNSLKPEDTAVYYCNAASFTVPMDYWGHGTQVTVSS | low polyreactivity
QVQLVESGGGLVQAGGSLRLSCAASGITFYVYAMGWYRQPPGTERDLVAAISRRGGSTSYADSVKGRFTISRDTAKNTVYLEMNSLKPEDTAVDYCAAGPFYGGIVRRYDYWGQGTQVTVSS | low polyreactivity
QVQLVESGVALVQAAGSLRLSCAASGSTFGYYTMGWYRQAPGKERELVAAISWSGGSTYYADSVKGRFTISRDHAKTTVYLQMNSLKPEDTAVYFCAAKTNRGSYSYEYWGQGTQVTVSS | high polyreactivity
QVHLVESGGGLVQAGGSLRLSCAASGFTFKDYAMGWYRQAPGKHTELVAAISYSGGSTYYADSVKGRFTISRDNAKNTVYLQMYSLKPEDTAVYYCNKGYPYVAYDYWGQGTQVTVSS | high polyreactivity
QVQLVESAAGLVLAGGSLRLSCAASGSIFRFYAMGWSRQAPGQERELVAGITLSGASTYYADSVKGRFTISRDNAKNTVYLQMNSLKPEDTAVYYCAKRYRLDGFYYWGQGTQVTVSS | high polyreactivity

Sequence | polyreactivity (PSR sort gate)
QVQLVESGGGLDQAGGSLRLSCAPSGYTFNVYSMGWYRQAPGNESELVAGISSYGGSTYYADSVKGRFTISRDNAKNTVYIQMNSLKPEDTAVYYCAARSALYPKYESWGQGTQVTVSS | low polyreactivity
QVQLVESGGGLVQAGGSLRLSCAASGFIFYRYAMGWYRQAPGKERELVAAISSSGGSTYYADSVKGRFTISRDNAKNTVYLQMNSLKPEDTAVYYCAAEPSGKRSKFYYLGQGTQVTVSS | high polyreactivity
QVQLVESGGGLVQAGGSLRLTCAASGLILVPNTMGWYRQAPGTERELVAAISYSGGGTYYADSVKGRFTISRDNAKNTVYLQMNSLKPEDTAVYYCAAYVKRESAPYGYWGQGTQVTVSS | low polyreactivity
QVQLVESGGGLVQAGGSLRLSCAASGRTFSQYAMGWYRQAPGKERELVAAISWSGGSTYYADSVKGRFTISRDNAKNTVYLQMNSLKPEDTAVYYCAAVGKGSARSSYPVLYDYCGQGTQVTVSS | low polyreactivity
QVQLEESAGGLVQAGGSLRLSCAASGRTFRRYAMGWYRPAPGKERELVAVISSGGRTNYADSVKGRFTISRDNAKNTVYLQLNSLKPEDTAVYYCNAGPLYSGVYSGYFWGQGTQVTVSS | high polyreactivity
QVQLVESGGGLVQAGGSLRLSCAASGFIFTGNVMGWYRQAPGKERELVAAIRWSGGRTYYADSVKGRFTISRDNAKNTVYLQMNSLIPEDTAVYYCNALGRVQGYKPGGLDYWGQGTQVTVSS | high polyreactivity
QVQLVESGGGLVQAGGSLRLSCAASGSIFNTYAMGWYRQAPGKERELVAAISRSGDSTYYADSVKGRFTISRDNAKNTVYVQMNSLKPEDSAVYYCATGRTDHGYYYWGQGTQVTVSS | high polyreactivity
QVQLVESGGGLVQAGGSLRLSCAASGRIFGDYGMGWYRQAPGKDRELVAAITDRGGTTYYADSVKGRFTISRDNAKNTVYVQKNSLQPEDTAVYYCNADTVVVWYSPSREYDYWGQGTQVTVSS | low polyreactivity
QVQLVESGGGLVQAGGSLRLSCAASGFIFPYNAMGWYRQAPGKERELVAAITYRDGSTYYPDSVKGRFTISRDNANNTVYGQMNSLKPEDTAVYYCAADRYVYWDLYGYWGQGTQVTVSS | low polyreactivity
QVQLVESGGGLVQAGGSLRLSCAASGRISFINAMGWYRQAPGKEREFVAGITTDGGSTYYADSVKGRFTISRDNAKNTVYLQMNSLKPEDTAVYYCAAEGSVWYVYWGDIYDYWGQGTQVTVSS | low polyreactivity
QVQLVESGGGLVQAGGSLRLSCAASGSTFYFYAMGWYRQAPGKEREFVARISNRDGSTYYADSVKGRFTISRDNAKNTVYLQMNSLKPEDTAVYYCAVKQRASHYPYYSWGQGTQVTVSS | high polyreactivity
QVQLVESGGGLVQAGGSLRLSCAASGITFEANTMGWYRQAPAKERELVAVITDTGSTNYADSVKGRFTISRDNAKNTVYLQMNSLKPEDTAVFYCKADAEPSSGTSAKNDYWGQGTQVSVSS | low polyreactivity
QVQLVESGGGLVQAGGSLRLSCAASGYIFGYYVMGWYRQAPGKERELVAAISDSDITYYADSVKGRFTISRDNAKNTVYLQMNSLKPEDTAVYYCNKDHSLYEHNYWGQGTLVTVSS | low polyreactivity
QVQLVESGGGLVQAGGSLRLTCDASGSIIRLYAMVWYRQAPGKERELVDAISYNSGTTYYADSVKGRFTISRDNAKNTVYLQMNSLKPADTAVYYCAARRYYNYDWRQGTQVTVSS | high polyreactivity
QVQLVESGGGLVQAGGSLRLSCAASGSIFSHKVMGWYRQAPGKERELVAAITYRGGSTYYADSVKGRFTISRDNAKNTVYLQMNSRKPEDTAVYYCAALNEVSTYHGFDYWGQGTQVTVSS | low polyreactivity
QVQLVESGGGLVQAGGSLRLSCAASGSIFVRYAKGWYRQAPGKERELVAAIDIGGGTYYADSVKGRFTISRDNAKNTVYLQMNSLKPEDTAVYYCAADGFTEYIYLPYDYWGQGTQVTVSS | high polyreactivity
QVQLVESGGGLVQAGGSLRLSCAASGSTFGYNAMGWYRQAPGKEREFVATIRYSGDRTYYADSVKGRFTISRDNAKNTVYLQMNSLKPEDTAVYYCAADLYYNSYGRYGRYYYWGQGTQVNVSS | high polyreactivity
QVQLVESGGGLVQAGGSLRLSCAASGFIFSYYAMGWYRQAPGKERELVAAITSSGGSTYYADSVKGRFTISRDNAKNTVYLHLNSLKPEDTAVYYCNAYVRRTRDYDYWGQGTQVTVSS | high polyreactivity
QVQLVESGGGLVQAGGSLRLSCAASGRTFVGNAIGWYRQATGKERELVAAINGSGGSTYYEDSVKGRFTISRDNAKNTVYLQMNSLKPEDPAVYYCNARPGVYVVIYDYWGQGTQVTVSS | low polyreactivity
QVQLVESGGGLVQAGGSISLSCAASGRIFPTNDMGWYRQAPGKERELVASIDSVGSTKYADSVKGRFTISRDNAKNTVYLQMNSLKPEDTAVYYRALQVLNYDYWGQGTQVTVSS | low polyreactivity
QVQLVESGGGLVQAGGSLRLSCAASGSIFTENAMGWYRQAPGKERELVATITITGSTNYADSVKGRFTISRDNAKNTVYLQMNSLKPEDTAVYYCNADLYIAFSASAYDYWGQGTQVTVSS | low polyreactivity

Source: the nanobody polyreactivity screen of Harvey et al. (2022)
